Consider one molecule from paper PMC3308923 (2012).

This test concerns the target H6MA-CA, His-tagged matrix-capsid (MAp17-CAp24) domains of the HIV-1 Gag precursor (HIV-1 (pNL4-3)). In words: ITC.

Broadly, the Kd is the concentration at which binding is half-saturated.

B1: Ank^GAG1D4 (designed binder)
chain: DLGKKLLEAARAGQDDEVRLLLEHGADVNARDSIGSTPLHLAAYYGHLEIVRLLLEHGADVNARDSTGTTPLHYAARLGHLEIVRLLLEHGADVNARDAMGWTPLHLAAKKGHLEIVRLLLKHGADVNANDHFGKTAFDISIDNGNEDLAEILQSFNHHHHHH
In the case of B1, the Kd was 1090 nM.
